Measurements taken from patent publication US20120122128A1.

How the values were obtained:
[1] = target: FGFR3 of SEQ ID NO: 25 (Homo sapiens (Human)) (UniProt P22607); experiment: cell-based or functional assay
[2] = target: SNAP-25 peptide comprising amino acids 134-206 of SEQ ID NO: 5 (human); experiment: SPR (BIAcore 3000), peptide amine-coupled to CM5 chip, antibody as analyte, 1:1 fit
[3] = target: SNAP-25 peptide comprising amino acids 134-197 of SEQ ID NO: 5 (human); experiment: as above

Chain of FGFR3 of SEQ ID NO: 25 (Homo sapiens (Human)) (P22607 other isoform, or with tags, fused parts or gaps limits assumed): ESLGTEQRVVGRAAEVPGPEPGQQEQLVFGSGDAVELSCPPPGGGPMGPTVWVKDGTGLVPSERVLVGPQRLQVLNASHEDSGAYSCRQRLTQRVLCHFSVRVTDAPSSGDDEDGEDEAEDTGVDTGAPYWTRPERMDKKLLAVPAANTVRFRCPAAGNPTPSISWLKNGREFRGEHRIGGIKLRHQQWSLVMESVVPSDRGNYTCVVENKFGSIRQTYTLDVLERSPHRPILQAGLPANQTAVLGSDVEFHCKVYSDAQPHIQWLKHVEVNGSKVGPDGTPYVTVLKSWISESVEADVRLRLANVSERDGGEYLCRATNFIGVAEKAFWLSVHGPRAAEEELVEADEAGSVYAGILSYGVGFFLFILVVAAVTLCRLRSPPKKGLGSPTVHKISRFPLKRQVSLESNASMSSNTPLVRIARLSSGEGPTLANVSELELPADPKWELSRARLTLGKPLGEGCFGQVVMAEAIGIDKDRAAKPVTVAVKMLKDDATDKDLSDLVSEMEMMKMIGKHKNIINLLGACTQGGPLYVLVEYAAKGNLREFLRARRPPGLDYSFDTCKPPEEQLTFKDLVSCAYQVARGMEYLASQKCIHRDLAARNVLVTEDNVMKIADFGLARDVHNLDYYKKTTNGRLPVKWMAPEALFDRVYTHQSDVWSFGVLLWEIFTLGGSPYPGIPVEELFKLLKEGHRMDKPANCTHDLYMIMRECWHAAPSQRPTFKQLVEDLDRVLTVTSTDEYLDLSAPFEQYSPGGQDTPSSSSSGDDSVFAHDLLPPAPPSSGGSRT

Substance: BoNT/A complex (from UniProt P0DPI0 2-1296) (enzyme)
- EC50 (nM) of SNAP-25 cleavage, Western blot, PC-12 cells transfected with FGFR3 [1]: 0.263 nM
- EC50 (nM) of SNAP-25 cleavage, Western blot, SiMa cells transfected with FGFR3 [1]: 0.0377 nM

Substance: MC-6050 α-SNAP-25 mouse monoclonal antibody (Research & Diagnostic Antibodies)
- Kd [2]: 19800 nM
- koff [2]: 0.00607 s⁻¹
- kon [2]: 306 M⁻¹ s⁻¹
- Kd [3]: 0.497 nM
- koff [3]: 0.000882 s⁻¹
- kon [3]: 1.78e+06 M⁻¹ s⁻¹

Substance: MC-6053 α-SNAP-25 mouse monoclonal antibody (Research & Diagnostic Antibodies)
- Kd [2]: 240 nM
- koff [2]: 2.56e-05 s⁻¹
- Kd [3]: 0.508 nM
- koff [3]: 0.00118 s⁻¹
- kon [3]: 2.32e+06 M⁻¹ s⁻¹
